Drawing on the Human Domainome abundance scans (Beltran et al. 2025), this text covers abundance fitness for 69 substances.

± gives the uncertainty stated by the source.

This data set in a line: abundance fitness (aPCA) (normalised: wild type 0, dead -1); higher = more abundant; growth selection in yeast, the domain comes from the species named. As to conditions: Homo sapiens.
On to “Scaffold attachment factor B2 L47Q, Q14151”, for which the abundance fitness was -0.287 ± 0.12.

“Scaffold attachment factor B2 L47R, Q14151” gave an abundance fitness of -0.524 ± 0.076.

The substance “Scaffold attachment factor B2 L47S, Q14151” registered an abundance fitness of -0.632 ± 0.093.

“Scaffold attachment factor B2 L47T, Q14151” yielded an abundance fitness of -0.409 ± 0.13.

The substance “Scaffold attachment factor B2 L47V, Q14151” registered an abundance fitness of -0.622 ± 0.083.

As for “Scaffold attachment factor B2 L47W, Q14151”, the abundance fitness is -0.696 ± 0.11.

On to “Scaffold attachment factor B2 L47Y, Q14151”, for which the abundance fitness was -0.714 ± 0.1.

In turn, “Scaffold attachment factor B2 L56A, Q14151” displayed an abundance fitness of -0.374 ± 0.091.

“Scaffold attachment factor B2 L56D, Q14151” showed an abundance fitness of -0.349 ± 0.13.

For the substance “Scaffold attachment factor B2 L56F, Q14151”, the abundance fitness was -0.816 ± 0.12.

“Scaffold attachment factor B2 L56G, Q14151” registered an abundance fitness of -0.285 ± 0.079.

“Scaffold attachment factor B2 L56H, Q14151” gave an abundance fitness of -0.296 ± 0.094.

In turn, “Scaffold attachment factor B2 L56K, Q14151” yielded an abundance fitness of -0.524 ± 0.096.

Substance “Scaffold attachment factor B2 L56M, Q14151” registered an abundance fitness of -0.179 ± 0.099.

“Scaffold attachment factor B2 L56N, Q14151”: the abundance fitness was -1.2 ± 0.43.

Substance “Scaffold attachment factor B2 L56P, Q14151” gave an abundance fitness of -0.319 ± 0.13.

On to “Scaffold attachment factor B2 L56Q, Q14151”, for which the abundance fitness was -0.378 ± 0.28.

Consider “Scaffold attachment factor B2 L56R, Q14151”, for which the abundance fitness is -0.39 ± 0.07.

For the substance “Scaffold attachment factor B2 L56S, Q14151”, the abundance fitness is -0.434 ± 0.1.

In the case of “Scaffold attachment factor B2 L56T, Q14151”, the abundance fitness is -0.546 ± 0.12.

“Scaffold attachment factor B2 L56V, Q14151” showed an abundance fitness of -0.369 ± 0.082.

Take “Scaffold attachment factor B2 L56W, Q14151”: the abundance fitness is -0.631 ± 0.086.

Substance “Scaffold attachment factor B2 L56Y, Q14151” gave an abundance fitness of -1.01 ± 0.23.

As to “Scaffold attachment factor B2 L60A, Q14151”, the abundance fitness was -0.323 ± 0.094.

In the case of “Scaffold attachment factor B2 L60C, Q14151”, the abundance fitness is -0.691 ± 0.14.

Take “Scaffold attachment factor B2 L60D, Q14151”: the abundance fitness was -0.019 ± 0.14.

“Scaffold attachment factor B2 L60F, Q14151” returned an abundance fitness of -0.448 ± 0.16.

For the substance “Scaffold attachment factor B2 L60G, Q14151”, the abundance fitness was -0.25 ± 0.084.

“Scaffold attachment factor B2 L60K, Q14151” displayed an abundance fitness of -0.204 ± 0.14.

For “Scaffold attachment factor B2 L60M, Q14151”, the abundance fitness is -0.343 ± 0.15.

“Scaffold attachment factor B2 L60N, Q14151”: the abundance fitness is -0.35 ± 0.22.

The substance “Scaffold attachment factor B2 L60P, Q14151” gave an abundance fitness of -0.102 ± 0.14.

In the case of “Scaffold attachment factor B2 L60Q, Q14151”, the abundance fitness was -0.271 ± 0.15.

“Scaffold attachment factor B2 L60S, Q14151” showed an abundance fitness of -0.398 ± 0.16.

The substance “Scaffold attachment factor B2 L60V, Q14151” had an abundance fitness of -0.361 ± 0.09.

As to “Scaffold attachment factor B2 M57A, Q14151”, the abundance fitness is -0.454 ± 0.087.

The substance “Scaffold attachment factor B2 M57C, Q14151” showed an abundance fitness of -0.504 ± 0.12.

Take “Scaffold attachment factor B2 M57D, Q14151”: the abundance fitness is -0.788 ± 0.18.

“Scaffold attachment factor B2 M57E, Q14151” showed an abundance fitness of -0.292 ± 0.11.

“Scaffold attachment factor B2 M57G, Q14151” yielded an abundance fitness of -0.631 ± 0.09.

“Scaffold attachment factor B2 M57H, Q14151” yielded an abundance fitness of -0.392 ± 0.14.

“Scaffold attachment factor B2 M57I, Q14151” had an abundance fitness of -0.319 ± 0.099.

The substance “Scaffold attachment factor B2 M57K, Q14151” registered an abundance fitness of -0.473 ± 0.13.

In turn, “Scaffold attachment factor B2 M57L, Q14151” showed an abundance fitness of -0.088 ± 0.11.

For “Scaffold attachment factor B2 M57N, Q14151”, the abundance fitness is -0.492 ± 0.14.

“Scaffold attachment factor B2 M57P, Q14151”: the abundance fitness is -0.66 ± 0.093.

“Scaffold attachment factor B2 M57Q, Q14151” registered an abundance fitness of -0.364 ± 0.094.

With “Scaffold attachment factor B2 M57S, Q14151”, the abundance fitness was -0.49 ± 0.088.

As for “Scaffold attachment factor B2 M57T, Q14151”, the abundance fitness was -0.363 ± 0.1.

The substance “Scaffold attachment factor B2 M57V, Q14151” came in with an abundance fitness of -0.189 ± 0.08.

In turn, “Scaffold attachment factor B2 M57W, Q14151” returned an abundance fitness of -0.791 ± 0.11.

As to “Scaffold attachment factor B2 N46A, Q14151”, the abundance fitness was -0.317 ± 0.076.

In turn, “Scaffold attachment factor B2 N46C, Q14151” showed an abundance fitness of -0.656 ± 0.12.

With “Scaffold attachment factor B2 N46D, Q14151”, the abundance fitness is -0.104 ± 0.12.

On to “Scaffold attachment factor B2 N46E, Q14151”, for which the abundance fitness was -0.131 ± 0.092.

Substance “Scaffold attachment factor B2 N46G, Q14151” gave an abundance fitness of 0.006 ± 0.084.

The substance “Scaffold attachment factor B2 N46H, Q14151” gave an abundance fitness of -0.432 ± 0.16.

“Scaffold attachment factor B2 N46K, Q14151” yielded an abundance fitness of -0.214 ± 0.088.

In the case of “Scaffold attachment factor B2 N46L, Q14151”, the abundance fitness is -0.355 ± 0.087.

Take “Scaffold attachment factor B2 N46M, Q14151”: the abundance fitness was -0.394 ± 0.17.

“Scaffold attachment factor B2 N46P, Q14151” showed an abundance fitness of -0.514 ± 0.087.

“Scaffold attachment factor B2 N46Q, Q14151” gave an abundance fitness of 0.023 ± 0.14.

“Scaffold attachment factor B2 N46R, Q14151” registered an abundance fitness of -0.358 ± 0.073.

“Scaffold attachment factor B2 N46S, Q14151” returned an abundance fitness of -0.135 ± 0.088.

“Scaffold attachment factor B2 N46T, Q14151” registered an abundance fitness of -0.444 ± 0.099.

“Scaffold attachment factor B2 N46V, Q14151” registered an abundance fitness of -0.515 ± 0.081.

“Scaffold attachment factor B2 N46W, Q14151”: the abundance fitness was -1.28 ± 0.2.

On to “Scaffold attachment factor B2 N46Y, Q14151”, for which the abundance fitness was -0.484 ± 0.11.

“Scaffold attachment factor B2 N52A, Q14151” gave an abundance fitness of -0.132 ± 0.088.
